In the supplement of paper PMC10126150:
± gives the standard deviation of the averaged measurements.

System: ATP
Test: switch fluorescence ratio, 500 uM ATP over buffer (Cy3 cluster intensity, sum of 5 cycles each) (fold (ratio)); higher = stronger signal-on switching upon ATP binding; sequences stand for … in TCGTCGGCAGCGTCAGATGTGTATAAGAGACAGTTTTTTTTTTTTTTTTTTTTTTTTT…TC
Conditions: aptamer strand: ATP DNA aptamer (quencher-CACCTGGGGGAGTATTGCGGAGGAAGG + anchor), 100 nM annealed; ATP concentration: 500 uM
In short: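 Imaging in selection buffer was followed by imaging after 15 min with 500 uM ATP at 22 °C, for Cy3-labelled switching-strand clusters annealed to 100 nM quencher-labelled ATP aptamer on a modified Illumina MiSeq flow-cell. Five of these buffer/ATP cycles ran, separated by NaOH stripping and re-annealing. The fluorescence ratio per cluster is summed target-cycle over summed buffer-cycle Cy3 intensity, averaged per switch-domain sequence; clusters outside 100-1000 RFU were removed.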
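Also: ATP exposure 15 min at 22 °C before imaging.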

Sequence | switch fluorescence ratio
GAGGACTTAG | 0.989 ± 0.022
GAAATCGCCA | 1.022 ± 0.007
AGGGTAATTT | 1.043 ± 0.0063
GTAGTGAGGG | 0.982 ± 0.037
GGGGGTTCTT | 1.01 ± 0.049
TGGAAGTGGG | 1.03 ± 0.042
GGGTAAGGGA | 0.961 ± 0.013
GATTAAGAGC | 0.999 ± 0.044
ATGTCAGTGT | 0.985 ± 0.074
CCAGGGTGGG | 1.03 ± 0.12
TGACGGGCAC | 1.17 ± 0.036
TTGTAGTTAC | 1.034 ± 0.0049
AGTTCATTT | 0.999 ± 0.019
CAAAGCATCT | 1.09 ± 0.011
GGGGAAATTA | 1.02 ± 0.012
AGGGCGGAGT | 0.994 ± 0.022
TGGGGGGGAA | 0.999 ± 0.021
AGATGGGTAC | 1.03 ± 0.029
GGAATTAGGT | 0.9903 ± 0.0077
CGGTGACTGC | 1.02 ± 0.099
GGCTGTTAAA | 0.978 ± 0.019
ATTTGGGAAG | 1.01 ± 0.021
AAAATGGGGC | 1 ± 0.037
AGAATTAAG | 0.96 ± 0.017
ATCATATGGA | 0.985 ± 0.037
GAGGGTAATC | 1.004 ± 0.01

Sequence | switch fluorescence ratio
GGTTGGATCG | 0.9987 ± 0.0047
GCTGGAGGGG | 0.985 ± 0.018
CGATATGGGG | 1.01 ± 0.057
TATCGCTTGG | 1 ± 0.018
ACATGGAGGG | 1.01 ± 0.057
CTCCTCGTCA | 1.17 ± 0.036
GTTGACGGTG | 0.982 ± 0.039
AATATATGCA | 0.991 ± 0.034
ATAGGTGCGG | 0.985 ± 0.021
TTATAATATT | 1.03 ± 0.025
GTGATTTAGA | 0.9969 ± 0.0054
AACGGGATGG | 1.02 ± 0.036
GGACAGTGTA | 1.01 ± 0.02
GCCCACGCTG | 1.02 ± 0.011
ACATGAATTT | 1 ± 0.029
TACGAGCTGA | 1.027 ± 0.0097
CTGGGGTTTT | 0.991 ± 0.032
TGGTGCCCCA | 1.03 ± 0.023
CCCCTTGTGA | 1.72 ± 0.04
GGCCTTATCG | 0.991 ± 0.048
ACCAGGGACG | 1.02 ± 0.073
ATACTTTAAA | 1.17 ± 0.1
GCGGAGGGGG | 1 ± 0.035
CCTGTTCGCT | 1.21 ± 0.014
CGATATGATG | 1.01 ± 0.062
ACTTGAAGTG | 0.997 ± 0.021

Sequence | switch fluorescence ratio
GCGGATGGCA | 1 ± 0.038
CGGCTTGTG | 0.99726 ± 0.00036
AGAGCGGGGG | 1.02 ± 0.038
ACTAGTATTA | 1 ± 0.036
CAATTATCGC | 0.988 ± 0.028
CATAGGTAGT | 0.981 ± 0.016
TAGGAAGAGG | 0.986 ± 0.0068
AAAGGTTTTG | 1 ± 0.02
AGTGGGGATA | 0.986 ± 0.039
GGGAGAAGAG | 0.979 ± 0.036
TTTATGGGAT | 0.986 ± 0.032
GAAATTATTA | 0.9919 ± 0.0075
GGAACTGGCG | 0.938 ± 0.094
CGCAGGCCTC | 1.47 ± 0.062
TAGGGACAGG | 0.99 ± 0.038
AAATTAAGGA | 1.01 ± 0.031
AGCGATAGTC | 1.56 ± 0.024
CTTGTGACAC | 1.02 ± 0.033
ACTGAATGCT | 0.973 ± 0.049
TTAATGTCCT | 1 ± 0.02
GCTACCACTC | 1.089 ± 0.01
TTTGCCGGTA | 1.01 ± 0.014
GTAAATAGGC | 0.993 ± 0.023
GGAGTACAAA | 1.03 ± 0.033
TGGGGTTATT | 0.974 ± 0.0098
TGGATTTGCA | 1.03 ± 0.022

Sequence | switch fluorescence ratio
AGGTTTTGTT | 0.964 ± 0.017
TCATTAATTG | 1.024 ± 0.0078
TTCCAGTTTT | 1 ± 0.04
TGCAGGGGGC | 1.02 ± 0.022
GGGAAGAAAT | 1 ± 0.037
CTGTAGCTGG | 1.53 ± 0.05
TTTTTGCAAT | 1.43 ± 0.24
CGGTGGGTC | 1.009 ± 0.0047
CGGCTATTAA | 1.044 ± 0.0086
TGGGTGAGCT | 1.01 ± 0.036
AGGACAAAGG | 0.989 ± 0.041
TGGTCTGCCC | 0.975 ± 0.053
GTTGAGGTCG | 0.995 ± 0.022
GTAACCCCGG | 1.07 ± 0.025
ACCGGGCTTT | 0.988 ± 0.024
GCTGGTTGGG | 0.98 ± 0.014
CGAATTTGCT | 1.01 ± 0.0079
TGTAAAGGCG | 0.953 ± 0.039
GTAAGGAGGT | 0.976 ± 0.023
TTGTAGACAG | 1.013 ± 0.0088
CTTTTTTGGG | 1.01 ± 0.014
GGCAGAGCTG | 1.016 ± 0.01
TTAAGTATGT | 1.08 ± 0.089
TGGGCTTTAG | 0.967 ± 0.041
CAAGTAGTGG | 1.03 ± 0.011
CGCACCATGC | 2.41 ± 0.073

Sequence | switch fluorescence ratio
AGTCATGAAA | 1.11 ± 0.12
AGGGTGATAC | 1.61 ± 0.62
ATTTTTTTG | 0.955 ± 0.021
TTTATAGAAA | 1.05 ± 0.02
CCACACGAGA | 1.18 ± 0.066
CGTGACATTG | 1.01 ± 0.013
GATTATAAGA | 0.989 ± 0.033
CGCTCGTTGT | 0.9559 ± 0.0033
TGAAGTTTTC | 0.968 ± 0.022
TTCCATTAGT | 1.01 ± 0.035
CCAGGGTTTT | 1.06 ± 0.1
CTCGTCAGGG | 0.995 ± 0.029
GCGGGGAGCG | 1.001 ± 0.0031
TGTTTGACGA | 0.991 ± 0.05
CGGGGTCGG | 1 ± 0.014
AATGGGTGCA | 1.03 ± 0.054
TTGGTTTGTA | 1 ± 0.065
TTTTCACAAT | 1.17 ± 0.21
TATATTTGTT | 0.997 ± 0.039
TTTTCGGTCT | 0.994 ± 0.017
TCATATACGC | 1.1 ± 0.011
AGCAGCTAAG | 0.995 ± 0.01
TGGGGGGGCA | 1 ± 0.012
GCGTTGAGGA | 1.04 ± 0.08
AGTATGTATG | 1.02 ± 0.024
GGGTATATTT | 1 ± 0.065

Sequence | switch fluorescence ratio
AATAACTAGA | 0.9804 ± 0.0037
GGCGTTGCGG | 0.9849 ± 0.0058
CGGAAAATTT | 1.01 ± 0.075
GGGATGAATA | 0.982 ± 0.042
CCGTAACGGA | 0.972 ± 0.012
CCAAGGCTTT | 1.03 ± 0.026
TTGGTCGTTT | 0.956 ± 0.038
GATTTTTTGA | 1.01 ± 0.011
AGTTCGTCGT | 0.983 ± 0.015
GGGTTGCTAC | 1.02 ± 0.017
TATTATAGGA | 0.982 ± 0.017
AGGGCTGGGT | 1 ± 0.033
ACGGGACGTA | 1.04 ± 0.014
ATTTACGAT | 1.02 ± 0.049
GGAGTTTAGC | 1.02 ± 0.029
TTACTACTTT | 1.04 ± 0.0099
TCGGGGGTGG | 0.988 ± 0.014
GGTATTATGG | 1 ± 0.029
ATTTTGTTGT | 1.03 ± 0.048
CGGTGTGTCC | 0.97164 ± 0.00017
TAATTGAGCA | 0.99 ± 0.019
CCGGGTTTAC | 1.621 ± 0.013
ACAGGGGCAG | 1.02 ± 0.017
